Experimental data published in publication doi:10.1101/2022.05.25.493364.

Molecular target: cGAS (cyclic GMP-AMP synthase) of the Serratia marcescens E2-CBASS operon, N-terminal 6×His-tag (Serratia marcescens)
Assay: in vitro covalent bonding assay

## E2 of the Serratia marcescens E2-CBASS operon, N-terminal 6×His-tag (enzyme)
  rate of isopeptide bond (+DTT) formation: 0.5 min⁻¹
  rate of total bond (thioester+isopeptide, -DTT) formation: 0.63 min⁻¹
